According to patent publication US11708423B2, “Chimeric engulfment receptor molecules and methods of use” (CERO THERAPEUTICS, INC., priority 2017, dated 2023):

How the values were obtained:
Type in all cases: cell-based
A549 ALK+ cells = test: MTT viability and bright field microscopy of A549 ALK+ cells with CER T cells and ALK inhibitor; conditions: for in vitro growth/viability of A549 ALK+ cells (MTT): Alectinib or Crizotinib 250 nM-10 μM, E:T 2:1 and 5:1
Description: An […] translocation was introduced into A549 cells. […] CER104 has a polypeptide sequence set forth in SEQ ID NO:133 and comprises a Tim4 binding domain, Tim4 transmembrane domain, and an engulfment signaling domain comprising a primary engulfment signaling domain comprising a TLR8 signaling domain and a secondary engulfment signaling domain comprising a DAP12 signaling domain. CER122 has a polypeptide sequence set forth in SEQ ID NO:149 and comprises a Tim4 binding domain, Tim4 transmembrane domain, and an engulfment signaling domain comprising a primary engulfment signaling domain comprising a TLR2 signaling domain and a secondary engulfment signaling domain comprising a DAP12 signaling domain. Effector:target (E:T) cell ratio for co-culture was 2:1 or 5:1. […] Cell viability experiments were performed in triplicates and presented as % of control. Best-fit curves were generated from raw data using linear regression models.
CER21−, CER108−, CER104−, and CER129-transduced CD4+ T cells were tested for their ability to kill A549 ALK+ cells in the presence of ALK inhibitor. CD4+ T cells were transduced with a lentiviral vector comprising a CER21, CER108, CER104, CER129, CER27, CER120, CER122, CER123, CER124, or CER126 nucleic acid. […] After 48 hours of co-culture, T cells were washed away and the number of viable A549 ALK+ cells was quantified using a calorimetric MTT assay (FIGS. 67A-B). Cell viability experiments were performed in triplicates and presented as % of control. Bright field microscopy images were also obtained from A549 ALK+co-culture experiments. […] Arrow indicates cluster of dead A549 ALK+ cells surrounded by phagocytic CER104+ T cells. […]

[1] = tested on: H1975 lung adenocarcinoma cells; test: LDH assay, H1975 cells, 48 hours co-culture with 1 μM Osimeritinib; conditions: E:T 1:1, 48 hours, CD4+ T cells
Description: CER30 comprises a Tim4 binding domain, Tim4 transmembrane domain, and an engulfment signaling domain comprising a primary engulfment signaling domain comprising a TRAF2 signaling domain. CER30 has a polypeptide sequence as set forth in SEQ ID NO:96. CER110 has a polypeptide sequence of SEQ ID NO:125 and comprises a Tim4 binding domain, Tim4 transmembrane domain, and an engulfment signaling domain comprising a primary engulfment signaling domain comprising a TRAF6 signaling domain and a secondary engulfment signaling domain comprising a DAP12 signaling domain. CER112 has a polypeptide sequence of SEQ ID NO:128 and comprises a Tim4 binding domain, Tim4 transmembrane domain, and an engulfment signaling domain comprising a primary engulfment signaling domain comprising a TRAF6 signaling domain and a secondary engulfment signaling domain comprising a NFAM1 signaling domain. CER127 has a polypeptide sequence of SEQ ID NO:175 and comprises a Tim4 binding domain, Tim4 transmembrane domain, and an engulfment signaling domain comprising a primary engulfment signaling domain comprising a TRAF2 signaling domain and a secondary engulfment signaling domain comprising a TLR2 signaling domain. H1975 cells are more resistant to EGFR inhibitors, so Osimeritinib was used at slightly higher concentration. H1975 lung adenocarcinoma cells harboring an EGFR mutation were co-cultured with CER-expressing or mock-transduced (vector only) CD4+ T cells with 1 μM of Osimeritinib. After 48 hours of co-culture at a 1:1 effector:target cell ratio, T cells were washed away, and the number of viable H1975 cells was quantified using a calorimetric LDH assay (FIG. 57). Cell viability experiments were performed in triplicate and presented as % of control.

ALK+A549 cells = test: Phagocytosis of ALK inhibitor treated A549 ALK+ cells by CER T cells (fluorescent microscopy); conditions: 12 hours; for phagocytosis of A549 cells: CD4 T cells
Description: An ELM4-ALK translocation was introduced into A549 cells. […] CD4 T cells are modified to express CER104 or CER117 and labeled with CELLTRACE Violet. CER117 has a polypeptide sequence set forth in SEQ ID NO:144 and comprises a Tim4 binding domain, a Tim4 transmembrane domain, and an engulfment signaling domain comprising a primary engulfment signaling domain comprising a TLR8 signaling domain and a secondary engulfment signaling domain comprising a TRAF6 signaling domain. The ALK+A549 cells were then co-cultured with CER104- or CER117-expressing CD4+ T cells or Mock-transduced (vector only) T cells for 12 hours and images were obtained by fluorescent microscopy at 40× magnification (FIGS. 62A-E). White arrows indicate exemplary phagocytic events (pH rodo red cell targets within CELLTRACE Violet labeled CD4+ T cells).
CER123- and CER126-transduced CD4+ and CD8+ T cells were labeled with CELLTRACE Violet and co-cultured with the A549 ALK-positive cells. Co-cultured cells were imaged by fluorescent microscopy at 63× magnification after 12 hours (FIGS. 63A-F). White arrows indicate exemplary phagocytic events (pHrodo red targets within CELLTRACE Violet-labeled CD4 T cells).
Phagocytosis of Alectinib-treated ALK+A549 cells by CER-expressing T cells was also quantified. […] Bar graph in FIG. 64A represents quantification of percentage phagocytosis calculated as ((number of phagocytic target events)/(total number of effector cells))*100. Events were calculated from fluorescent 3×3 stitched images at 40×resolution after 12 hours of co-culture. Bar graph in FIG. 64B represents quantification of adjusted phagocytic index calculated as (median area ratio of target events in effector cells*phagocytosis). Events calculated from fluorescent 3×3 stitched images at 40×resolution after 12 hours of co-culture.
CER21−, CER27−, CER30−, CER108−, CER110−, CER112−, CER120−, CER123−, CER124−, CER126−, CER127−, or CER104-transduced CD4+ T cells were co-cultured with Alectinib-treated A549 cells at a 1:1 ratio for 12 hours. Phagocytic events were calculated from 3×3 stitched fluorescent microscopy images at 40X resolution. […] Images were obtained after 12 hours of co-culture. Yellow triangles indicate exemplary phagocytic events (pHrodo red targets within CELLTRACE violet labeled CD4+ T cells).
A time course study of phagocytic uptake of tumor cells by CER-transduced T cells was performed. CD4+ T cells were transduced with a lentiviral vector comprising CER122 nucleic acid. Mock-transduced (vector only) CD4+ T cells were used as control. CER122-transduced T cells were labeled with CELLTRACE violet and co-cultured with pHrodo red labeled A549 ALK+ lung adenocarcinoma cells. Fluorescent microscopy images were obtained at 4, 8, and 16 hours co-culture (FIG. 72C), and % phagocytosis (FIG. 72A) and phagocytic index (FIG. 72B) were calculated.

Molecule	bright field microscopy of A549 ALK+ co-culture (A549 ALK+ cells; Alectinib 3.7 μM, 48 hours, vs mock-transduced T cells)	in vitro growth/viability of A549 ALK+ cells (MTT) (A549 ALK+ cells; 48 hours)	in vitro growth/viability of A549 ALK+ cells (MTT) (A549 ALK+ cells; 72 hours)	killing of H1975 cells (LDH) [1]	phagocytosis of A549 cells (ALK+A549 cells; 1 μM Alectinib)	phagocytosis of A549 cells (ALK+A549 cells; 1 μM Crizotinib)	phagocytic elimination of ALK+A549 cells (ALK+A549 cells; 2.5 μM Alectinib)
CER104: Tim4 binding and transmembrane domains, TLR8 primary and DAP12 secondary signaling domains; SEQ ID NO:133 (protein, CER104 protein) MSKGLLLLWLVTELWWLYLTPAASEDTIIGFLGQPVTLPCHYLSWSQSRNSMCWGKGSCPNSKCNAELLRTDGTRIISRKSTKYTLLGKVQFGEVSLTISNTNRGDSGVYCCRIEVPGWFNDVKKNVRLELRRATTTKKPTTTTRPTTTPYVTTTTPELLPTTVMTTSVLPTTTPPQTLATTAFSTAVTTCPSTTPGSFSQETTKGSAFTTESETLPASNHSQRSMMTISTDIAVLRPTGSNPGILPSTSQLTTQKTTLTTSESLQKTTKSHQINSRQTILIIACCVGFVLMVLLFLAFLHHLFYWDVWFIYNVCLAKVKGYRSLSTSQTFYDAYISYDTKDASVTDWVINELRYHLEESRDKNVLLCLEERDWDPGLAIIDNLMQSINQSKKTVFVLTKKYAKSWNFKTAFYLALQRLMDENMDVIIFILLEPVLQHSQYLRLRQRICKSSILQWPDNPKAEGLFWQTLRNVVLTENDSRYNNMYVDSIKQYYFLGRLVPRGRGAAEAATRKQRITETESPYQELQGQRSDVYSDLNTQRPYYK	cluster of dead A549 ALK+ cells surrounded by phagocytic CER104^+ T cells	synergistically suppress in vitro growth of NSCLC cells harboring ALK rearrangements	synergistically suppress in vitro growth of NSCLC cells harboring ALK rearrangements	synergistic killing of H1975 lung adenocarcinoma cells upon EGFR inhibition	phagocytosed A549 cells	phagocytosed A549 cells	–
CER123: Tim4 binding and transmembrane domains, TLR2 primary and TRAF6 secondary signaling domains; SEQ ID NO:150 (protein, CER123 protein) MSKGLLLLWLVTELWWLYLTPAASEDTIIGFLGQPVTLPCHYLSWSQSRNSMCWGKGSCPNSKCNAELLRTDGTRIISRKSTKYTLLGKVQFGEVSLTISNTNRGDSGVYCCRIEVPGWFNDVKKNVRLELRRATTTKKPTTTTRPTTTPYVTTTTPELLPTTVMTTSVLPTTTPPQTLATTAFSTAVTTCPSTTPGSFSQETTKGSAFTTESETLPASNHSQRSMMTISTDIAVLRPTGSNPGILPSTSQLTTQKTTLTTSESLQKTTKSHQINSRQTILIIACCVGFVLMVLLFLAFLHRFHGLWYMKMMWAWLQAKRKPRKAPSRNICYDAFVSYSERDAYWVENLMVQELENFNPPFKLCLHKRDFIPGKWIIDNIIDSIEKSHKTVFVLSENFVKSEWCKYELDFSHFRLFDENNDAAILILLEPIEKKAIPQRFCKLRKIMNTKTYLEWPMDEAQREGFWVNLRAAIKSMSLLNCENSCGSSQSESDCCVAMASSCSAVTKDDSVGGTASTGNLSSSFMEEIQGYDVEFDPPLESKYECPICLMALREAVQTPCGHRFCKACIIKSIRDAGHKCPVDNEILLENQLFPDNFAKREILSLMVKCPNEGCLHKMELRHLEDHQAHCEFALMDCPQCQRPFQKFHINIHILKDCPRRQVSCDNCAASMAFEDKEIHDQNCPLANVICEYCNTILIREQMPNHYDLDCPTAPIPCTFSTFGCHEKMQRNHLARHLQENTQSHMRMLA	–	–	–	synergistic killing of H1975 lung adenocarcinoma cells upon EGFR inhibition	–	–	phagocytic elimination of ALK+A549 cells
CER21: Tim4 binding and transmembrane domains, TLR8 signaling domain; SEQ ID NO:88 (protein, CER21 chimeric engulfment receptor) MSKGLLLLWLVTELWWLYLTPAASEDTIIGFLGQPVTLPCHYLSWSQSRNSMCWGKGSCPNSKCNAELLRTDGTRIISRKSTKYTLLGKVQFGEVSLTISNTNRGDSGVYCCRIEVPGWFNDVKKNVRLELRRATTTKKPTTTTRPTTTPYVTTTTPELLPTTVMTTSVLPTTTPPQTLATTAFSTAVTTCPSTTPGSFSQETTKGSAFTTESETLPASNHSQRSMMTISTDIAVLRPTGSNPGILPSTSQLTTQKTTLTTSESLQKTTKSHQINSRQTILIIACCVGFVLMVLLFLAFLHHLFYWDVWFIYNVCLAKVKGYRSLSTSQTFYDAYISYDTKDASVTDWVINELRYHLEESRDKNVLLCLEERDWDPGLAIIDNLMQSINQSKKTVFVLTKKYAKSWNFKTAFYLALQRLMDENMDVIIFILLEPVLQHSQYLRLRQRICKSSILQWPDNPKAEGLFWQTLRNVVLTENDSRYNNMYVDSIKQY	–	–	–	synergistic killing of H1975 lung adenocarcinoma cells upon EGFR inhibition	–	–	–
